The source of these data is the Human Domainome abundance scans (Beltran et al. 2025).

B1: Formin-binding protein 4, residues 200 to 261; numbered along this chain, Q8N3X1 (parent)
chain: SGWQYDTQCSLAGVGIEMGDWQEVWDENTGCYYYWNTQTNEVTWELPQYLATQVQGLQHYQP

± gives the uncertainty stated by the source.

In the series the parent is B1. Description: abundance fitness (aPCA) (normalised: wild type 0, dead -1); higher = more abundant; growth selection in yeast, the domain comes from the species named. As to conditions: Homo sapiens.
As for SGWQYDTQCSLAGVGIEMGDWQEVWDENTGCYYYWNTQTNEPTWELPQYLATQVQGLQHYQP [V42P], the abundance fitness is -0.415 ± 0.11. Regarding SGWQYDTQCSLAGVGIEMGDWQEVWDENTGCYYYWNTQTNEITWELPQYLATQVQGLQHYQP [V42I], the abundance fitness is -0.188 ± 0.11. SGWQYDTQCSLAGVGIEMGDWQEVWDENTGCYYYWNTQTNENTWELPQYLATQVQGLQHYQP [V42N]: the abundance fitness is -0.203 ± 0.16. For SGWQYDTQCSLAGVGIEMGDWQEVWDENTGCYYYWNVQTNEVTWELPQYLATQVQGLQHYQP [T37V], the abundance fitness is -0.058 ± 0.065.

SGWQYDTQCSLAGVGIEMGDWQEVWDENTGCYYYWNQQTNEVTWELPQYLATQVQGLQHYQP [T37Q]: the abundance fitness is 0.01 ± 0.093. Take SGWQYDTQCSLAGVGIEMGDWQEVWDENTGCYYYWNRQTNEVTWELPQYLATQVQGLQHYQP [T37R]: the abundance fitness was -0.111 ± 0.071. Turning to SGWQYDTQCSLAGVGIEMGDWQEVWDENTGCYYYWNYQTNEVTWELPQYLATQVQGLQHYQP [T37Y], the abundance fitness is -0.243 ± 0.14. As for SGWQYDTQCSLAGVGIEMGDWQEVWDENTGCYYYWNSQTNEVTWELPQYLATQVQGLQHYQP [T37S], the figure is 0.019 ± 0.064; as for SGWQYDTQCSLAGVGIEMGDWQEVWDENTGCYYYWNTQTQEVTWELPQYLATQVQGLQHYQP [N40Q], -0.056 ± 0.082; as for SGWQYDTQCSLAGVGIEMGDWQEVWDENTGCYYYWNTQTREVTWELPQYLATQVQGLQHYQP [N40R], -0.157 ± 0.06. As for SGWQYDTQCSLAGVGIEMGDWQEVWDENTGCYYYWNTQTPEVTWELPQYLATQVQGLQHYQP [N40P], the figure is -0.931 ± 0.15. For SGWQYDTQCSLAGVGIEMGDWQEVWDENTGCYYYWNTQTWEVTWELPQYLATQVQGLQHYQP [N40W], the abundance fitness is -0.34 ± 0.082.

With SGWQYDTQCSLAGVGIEMGDWQEVWDENTGCYYYWNTQTTEVTWELPQYLATQVQGLQHYQP [N40T], the abundance fitness was -0.096 ± 0.097. Take SGWQYDTQCSLAGVGIEMGDWQEVWDENTGCYYYWNTQTGEVTWELPQYLATQVQGLQHYQP [N40G]: the abundance fitness is -0.037 ± 0.062.

Take SGWQYDTQCSLAGVGIEMGDWQEVWDENTGCYYYWNTQTYEVTWELPQYLATQVQGLQHYQP [N40Y]: the abundance fitness is -0.564 ± 0.17. Turning to SGWQYDTQCSLAGVGIEMGDWQEVWDENTGCYYYWNTQTMEVTWELPQYLATQVQGLQHYQP [N40M], the abundance fitness is -0.298 ± 0.091.

As to SGWQYDTQCSLAGVGIEMGDWQEVWDENTGCYYYWNTQTIEVTWELPQYLATQVQGLQHYQP [N40I], the abundance fitness is -0.607 ± 0.19.

SGWQYDTQCSLAGVGIEMGDWQEVWDENTGCYYYWNTQTHEVTWELPQYLATQVQGLQHYQP [N40H]: the abundance fitness was -0.032 ± 0.11.

With SGWQYDTQCSLAGVGIEMGDWQEVWDENTGCYYYWNTQTFEVTWELPQYLATQVQGLQHYQP [N40F], the abundance fitness is -0.37 ± 0.12. Consider SGWQYDTQCSLAGVGIEMGDWQEVWDENTGCYYYWNTQTCEVTWELPQYLATQVQGLQHYQP [N40C], for which the abundance fitness is -0.505 ± 0.13. On to SGWQYDTQCSLAGVGIEMGDWQEVWDENTGCYYYWNTQTSEVTWELPQYLATQVQGLQHYQP [N40S], for which the abundance fitness is -0.057 ± 0.063. As for SGWQYDTQCSLAGVGIEMGDWQEVWDENTGCYYYWNTQTAEVTWELPQYLATQVQGLQHYQP [N40A], the figure is -0.08 ± 0.07. Take SGWQYDTQCSLAGVGIEMGDWQEVWDENTGCYYYWNTQTEEVTWELPQYLATQVQGLQHYQP [N40E]: the abundance fitness was -0.04 ± 0.075. As for SGWQYDTQCSLAGVGIEMGDWQEVWDENTGCYYYWNTQTVEVTWELPQYLATQVQGLQHYQP [N40V], the abundance fitness was -0.556 ± 0.081.

Regarding SGWQYDTQCSLAGVGIEMGDWQEVWDENTGCYYYWNTQTNHVTWELPQYLATQVQGLQHYQP [E41H], the abundance fitness was -0.472 ± 0.2. As for SGWQYDTQCSLAGVGIEMGDWQEVWDENTGCYYYWNTQTNKVTWELPQYLATQVQGLQHYQP [E41K], the figure is -0.081 ± 0.092; as for SGWQYDTQCSLAGVGIEMGDWQEVWDENTGCYYYWNTQTNAVTWELPQYLATQVQGLQHYQP [E41A], -0.109 ± 0.086. As for SGWQYDTQCSLAGVGIEMGDWQEVWDENTGCYYYWNTQTNWVTWELPQYLATQVQGLQHYQP [E41W], the figure is -0.378 ± 0.11; as for SGWQYDTQCSLAGVGIEMGDWQEVWDENTGCYYYWNTQTNCVTWELPQYLATQVQGLQHYQP [E41C], -0.409 ± 0.15; as for SGWQYDTQCSLAGVGIEMGDWQEVWDENTGCYYYWNTQTNIVTWELPQYLATQVQGLQHYQP [E41I], -0.324 ± 0.17. Consider SGWQYDTQCSLAGVGIEMGDWQEVWDENTGCYYYWNTQTNSVTWELPQYLATQVQGLQHYQP [E41S], for which the abundance fitness was -0.349 ± 0.082. As for SGWQYDTQCSLAGVGIEMGDWQEVWDENTGCYYYWNTQTNYVTWELPQYLATQVQGLQHYQP [E41Y], the figure is -0.231 ± 0.13; as for SGWQYDTQCSLAGVGIEMGDWQEVWDENTGCYYYWNTQTNPVTWELPQYLATQVQGLQHYQP [E41P], -0.776 ± 0.12. SGWQYDTQCSLAGVGIEMGDWQEVWDENTGCYYYWNTQTNRVTWELPQYLATQVQGLQHYQP [E41R]: the abundance fitness is -0.158 ± 0.078.

Turning to SGWQYDTQCSLAGVGIEMGDWQEVWDENTGCYYYWNTQTNMVTWELPQYLATQVQGLQHYQP [E41M], the abundance fitness is -0.34 ± 0.098.

With SGWQYDTQCSLAGVGIEMGDWQEVWDENTGCYYYWNTQTNDVTWELPQYLATQVQGLQHYQP [E41D], the abundance fitness was -0.268 ± 0.19. As to SGWQYDTQCSLAGVGIEMGDWQEVWDENTGCYYYWNTQTNGVTWELPQYLATQVQGLQHYQP [E41G], the abundance fitness is -0.471 ± 0.1.

As for SGWQYDTQCSLAGVGIEMGDWQEVWDENTGCYYYWNTQTNLVTWELPQYLATQVQGLQHYQP [E41L], the abundance fitness was -0.111 ± 0.059.

For SGWQYDTQCSLAGVGIEMGDWQEVWDENTGCYYYWNTQTNTVTWELPQYLATQVQGLQHYQP [E41T], the abundance fitness is -0.283 ± 0.084. In the case of SGWQYDTQCSLAGVGIEMGDWQEVWDENTGCYYYWNTQTNNVTWELPQYLATQVQGLQHYQP [E41N], the abundance fitness is -0.364 ± 0.18. Turning to SGWQYDTQCSLAGVGIEMGDWQEVWDENTGCYYYWNTQTNQVTWELPQYLATQVQGLQHYQP [E41Q], the abundance fitness amounted to 0.014 ± 0.076.

With SGWQYDTQCSLAGVGIEMGDWQEVWDENTGCYYYWNTQTNFVTWELPQYLATQVQGLQHYQP [E41F], the abundance fitness is -0.556 ± 0.14. Take SGWQYDTQCSLAGVGIEMGDWQEVWDENTGCYYYWNTQTNVVTWELPQYLATQVQGLQHYQP [E41V]: the abundance fitness is -0.323 ± 0.09.
